Substrate in data set [1]: CC1=CC[C@@H]2C[C@H]1C2(C)C
The experiment in a line: cells, lysate or membranes. The conditions noted are these: Sf9 microsomes + MPB CPR, 1 mM NADPH, 50 mM potassium phosphate pH 7.4, 30 °C, 1 h.

Substrate in data set [2]: CC1=CC[C@H]2C[C@@H]1C2(C)C
The data set can be described thus: cells, lysate or membranes. The conditions noted are these: Sf9 microsomes + MPB CPR, 1 mM NADPH, 50 mM potassium phosphate pH 7.4, 30 °C, 1 h.

The results in this text go back to paper PMC6365528.

B1: CYP6DE1 (Dendroctonus ponderosae) (protein)
chain: MALIIAVGLLLSIILLYCVYSKWKFQHWTRKGVPQLNPRLFFGDTLPLVRGQALKDFHLGLYQKFKSTGAKCVGIYNAHMPELVPIDIILLKDIMVKDYSYFSSHGVFYHEKNVLTSHLFNIEGQSWKERRTKLTPVFTSAKMKQMFDTVASKSPGLVRLVGLSADANKPADIKEILSRFTTDVISGAAFGLECKSLYEPDNMFRAIGKEAFEPNALKLYIEYLFPRQLLGSIGYQTFSSRIVSYFSKVVNETIQYREKNNVQRNDFMQLMLQLKQHGSLVKEDGSVDVKKTETQITDREILSESFLMFLAGHETSSSTSTFALFALSQNQDIQEKVRNEINEVLERHNGKLGYDALMEMEYLDKVIRETLRKYPTVPVIPRRCTKDYQIKNTNTVIDKGTRLYIPVIGVHLDPEYYPDPERFDPERFSPENKAKRPDIAWMPFGEGPRQCLGMRFGLLQSKVALASLLPTFRFTINKAMKPPYIADAGTLVYMFKQDVLLDATRIN
By Km is commonly meant the substrate concentration at which the rate is half of its maximum. Usually Vmax stands for the top rate of the reaction or transport when substrate is in excess. In general, kcat refers to the maximal rate divided by the concentration of active sites. In general, kcat/Km refers to the second-order rate constant that governs catalysis at low substrate concentration. With B1, in data set [1], the Km was 292 ± 1 µM, the maximal velocity (Vmax) was 0.42 µM/min, the catalytic constant (kcat) worked out at 0.17 s⁻¹ and the kcat/Km amounted to 576 M⁻¹ s⁻¹. Besides, in data set [2], the Km turned out to be 160 ± 1 µM, the Vmax was 0.96 µM/min, the kcat was 0.37 s⁻¹ and the kcat/Km was 2320 M⁻¹ s⁻¹.
